Source: patent US20120316071A1 (published 2012)

T1: rHuman Erythropoietin R/Fc Chimera, CF (R&D Systems Cat#963-ER) (human, UniProt P19235 25-250)
T1 construct: Bought recombinant protein; also called EPO R; EPO R/Fc; Fc part of the bought chimera not given
T1 sequence (looked up): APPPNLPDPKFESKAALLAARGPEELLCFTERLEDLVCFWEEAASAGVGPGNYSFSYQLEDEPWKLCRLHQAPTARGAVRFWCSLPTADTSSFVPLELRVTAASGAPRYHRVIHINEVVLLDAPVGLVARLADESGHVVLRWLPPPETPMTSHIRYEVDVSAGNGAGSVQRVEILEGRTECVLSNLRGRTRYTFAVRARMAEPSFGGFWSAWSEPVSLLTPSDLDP

B1: Fab VH1-46_IGHD6-6*01_IGHJ1*01 & L6_IGKJ1*01 (Fab, V domains shown)
VH: QVQLVQSGAEVKKPGASVKVSCKASGYTFTSYYMHWVRQAPGQGLEWMGIINPSGGSTSYAQKFQGRVTMTRDTSTSTVYMELSSLRSEDTAVYYCAREEYSSSSAEYFQHWGQGTLVTVSS
VL: not shown
notes: Tested as a Fab expressed in E. coli; The heavy chain came from Plasmid A (CH1 with His6 and Flag tags) and the kappa light chain from Plasmid C (kappa CL); also called Wt; wildtype
B2: Fab VH1-46_IGHD6-6*01_IGHJ1*01 S102A/S103P/S104F (APF) & L6_IGKJ1*01 (Fab, V domains shown)
VH: QVQLVQSGAEVKKPGASVKVSCKASGYTFTSYYMHWVRQAPGQGLEWMGIINPSGGSTSYAQKFQGRVTMTRDTSTSTVYMELSSLRSEDTAVYYCAREEYAPFSAEYFQHWGQGTLVTVSS
VL: not shown
notes: Tested as a Fab expressed in E. coli; the constant parts (CH1 with His6/Flag tags, kappa CL) come from Plasmids A and C; also called APF triple mutant; H:APF & L:wt

Legend:
[1] = molecular target: T1, rHuman Erythropoietin R/Fc Chimera, CF …; assay: ECL multispot (MSD), antigen spotted on plate, Fab at 50.00 (column head: Fab [µM])
[2] = molecular target: T2, rHuman IGF-1 sR (insulin-like growth factor-1 soluble receptor), CF (R&D Systems Cat#391-GR) (human, UniProt P08069 31-932); assay: as above
T2 construct: Bought recombinant soluble receptor

[3] = molecular target: T3, rHuman ErbB2/Fc Chimera, CF (R&D Systems Cat#1129-ER) (human, UniProt P04626 23-652); assay: as above
T3 construct: Bought recombinant protein; Fc part of the bought chimera not given

[4] = molecular target: T4, rHuman EGF R/Fc Chimera, CF (R&D Systems Cat#344-ER) (human, UniProt P00533 25-645); assay: as above
T4 construct: Bought recombinant protein; Fc part of the bought chimera not given

[5] = molecular target: T5, rHuman HGF R/c-MET/Fc Chimera, CF (R&D Systems Cat#358-MT/CF) (human, UniProt P08581 25-932); assay: as above
T5 construct: Bought recombinant protein; also called HGF R/Fc; Fc part of the bought chimera not given
T5 sequence (P08581 25-932, change not shown): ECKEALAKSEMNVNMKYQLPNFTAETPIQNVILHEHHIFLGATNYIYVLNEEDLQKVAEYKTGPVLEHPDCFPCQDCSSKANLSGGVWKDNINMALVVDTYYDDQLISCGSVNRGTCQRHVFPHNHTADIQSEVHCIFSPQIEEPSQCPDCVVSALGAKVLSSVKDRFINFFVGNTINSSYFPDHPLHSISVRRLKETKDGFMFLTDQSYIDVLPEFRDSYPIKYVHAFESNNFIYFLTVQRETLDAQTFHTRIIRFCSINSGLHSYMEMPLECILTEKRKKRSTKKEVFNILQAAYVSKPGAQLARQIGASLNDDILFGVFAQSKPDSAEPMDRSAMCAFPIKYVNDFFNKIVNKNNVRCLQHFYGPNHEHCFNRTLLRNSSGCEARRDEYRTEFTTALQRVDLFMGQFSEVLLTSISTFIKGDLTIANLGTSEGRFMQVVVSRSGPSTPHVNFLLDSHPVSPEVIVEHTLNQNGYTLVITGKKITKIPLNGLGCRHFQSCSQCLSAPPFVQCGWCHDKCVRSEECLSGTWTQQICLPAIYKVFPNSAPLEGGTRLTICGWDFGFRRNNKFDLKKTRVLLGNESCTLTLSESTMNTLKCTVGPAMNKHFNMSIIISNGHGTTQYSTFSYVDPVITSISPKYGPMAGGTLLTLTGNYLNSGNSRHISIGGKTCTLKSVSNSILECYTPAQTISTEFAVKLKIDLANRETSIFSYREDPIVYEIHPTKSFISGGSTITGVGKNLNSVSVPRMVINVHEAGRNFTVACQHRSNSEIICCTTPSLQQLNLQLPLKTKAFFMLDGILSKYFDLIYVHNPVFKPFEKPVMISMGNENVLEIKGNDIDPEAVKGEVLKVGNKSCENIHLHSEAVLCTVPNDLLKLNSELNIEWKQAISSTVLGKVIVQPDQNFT

[6] = molecular target: T6, Recombinant Human DLL4 (R&D Systems Cat#1506-D4/CF) (human, UniProt Q9NR61 27-524); assay: as above
T6 construct: Bought recombinant protein; also called delta-like protein 4; rHuman DLL4

[7] = molecular target: T7, rHuman Notch-1/Fc Chimera, CF (R&D Systems Cat#3647-TK) (human, UniProt P46531 19-526); assay: as above
T7 construct: Bought recombinant chimera; Fc part of the bought chimera not given

[8] = molecular target: T8, rHuman CD44/Fc Chimera, CF (R&D Systems Cat#3660-CD) (human, UniProt P16070 21-220); assay: as above
T8 construct: Bought recombinant protein; Fc part of the bought chimera not given

[9] = molecular target: T9, rHuman P-Cadherin/Fc Chimera, CF (R&D Systems Cat#861-PC) (human, UniProt P22223 108-654); assay: as above
T9 construct: Bought recombinant protein; Fc part of the bought chimera not given

[10] = molecular target: T1, rHuman Erythropoietin R/Fc Chimera, CF …; assay: ECL multispot (MSD), antigen spotted on plate, Fab at 5.00 (column head: Fab [µM])
[11] = molecular target: T2, rHuman IGF-1 sR (insulin-like growth …); assay: as above
[12] = molecular target: T3, rHuman ErbB2/Fc Chimera, CF (R&D …); assay: as above
[13] = molecular target: T4, rHuman EGF R/Fc Chimera, CF (R&D …); assay: as above
[14] = molecular target: T5, rHuman HGF R/c-MET/Fc Chimera, CF (R&D …); assay: as above
[15] = molecular target: T6, Recombinant Human DLL4 (R&D Systems …); assay: as above
[16] = molecular target: T7, rHuman Notch-1/Fc Chimera, CF (R&D …); assay: as above
[17] = molecular target: T8, rHuman CD44/Fc Chimera, CF (R&D Systems …); assay: as above
[18] = molecular target: T9, rHuman P-Cadherin/Fc Chimera, CF (R&D …); assay: as above
[19] = molecular target: T8, rHuman CD44/Fc Chimera, CF (R&D Systems …); assay: ECL multispot (MSD), antigen spotted on plate, Fab at 0.50 (column head: Fab [µM])

Row | Binder | signal/noise ratio (ECL) [1] | signal/noise ratio (ECL) [2] | signal/noise ratio (ECL) [3] | signal/noise ratio (ECL) [4] | signal/noise ratio (ECL) [5] | signal/noise ratio (ECL) [6] | signal/noise ratio (ECL) [7] | signal/noise ratio (ECL) [8] | signal/noise ratio (ECL) [9] | signal/noise ratio (ECL) [10] | signal/noise ratio (ECL) [11] | signal/noise ratio (ECL) [12] | signal/noise ratio (ECL) [13] | signal/noise ratio (ECL) [14] | signal/noise ratio (ECL) [15] | signal/noise ratio (ECL) [16] | signal/noise ratio (ECL) [17] | signal/noise ratio (ECL) [18] | signal/noise ratio (ECL) [19]
1 | B1 | 0.9 | 0.5 | 0.6 | 0.9 | 0.6 | 33.5 | 0.6 | 0.3 | 0.7 | 1.1 | 1.1 | 1 | 1 | 0.9 | 32.5 | 0.8 | 1.3 | 0.9 | 1
2 | B2 | 1.6 | 0.5 | 0.7 | 1 | 0.7 | 274 | 1.1 | 0.7 | 0.9 | 1.8 | 1.1 | 1.1 | 1.1 | 0.8 | 482 | 0.9 | 1.3 | 1 | 1
